Test results published in paper PMC4778049, “A Helitron transposon reconstructed from bats reveals a novel mechanism of genome shuffling in eukaryotes” (Nature Communications, 2016).

T1: Helraiser transposase (Myotis lucifugus, UniProt Z9MI32ZQP9, K1068Q)
T1 construct: full-length synthesized consensus transposase, 1,496 aa (N-terminal domain, Rep HUH nuclease, SF1 helicase); baculovirus expression, purified
T1 sequence (Z9MI32ZQP9 1-1496 K1068Q): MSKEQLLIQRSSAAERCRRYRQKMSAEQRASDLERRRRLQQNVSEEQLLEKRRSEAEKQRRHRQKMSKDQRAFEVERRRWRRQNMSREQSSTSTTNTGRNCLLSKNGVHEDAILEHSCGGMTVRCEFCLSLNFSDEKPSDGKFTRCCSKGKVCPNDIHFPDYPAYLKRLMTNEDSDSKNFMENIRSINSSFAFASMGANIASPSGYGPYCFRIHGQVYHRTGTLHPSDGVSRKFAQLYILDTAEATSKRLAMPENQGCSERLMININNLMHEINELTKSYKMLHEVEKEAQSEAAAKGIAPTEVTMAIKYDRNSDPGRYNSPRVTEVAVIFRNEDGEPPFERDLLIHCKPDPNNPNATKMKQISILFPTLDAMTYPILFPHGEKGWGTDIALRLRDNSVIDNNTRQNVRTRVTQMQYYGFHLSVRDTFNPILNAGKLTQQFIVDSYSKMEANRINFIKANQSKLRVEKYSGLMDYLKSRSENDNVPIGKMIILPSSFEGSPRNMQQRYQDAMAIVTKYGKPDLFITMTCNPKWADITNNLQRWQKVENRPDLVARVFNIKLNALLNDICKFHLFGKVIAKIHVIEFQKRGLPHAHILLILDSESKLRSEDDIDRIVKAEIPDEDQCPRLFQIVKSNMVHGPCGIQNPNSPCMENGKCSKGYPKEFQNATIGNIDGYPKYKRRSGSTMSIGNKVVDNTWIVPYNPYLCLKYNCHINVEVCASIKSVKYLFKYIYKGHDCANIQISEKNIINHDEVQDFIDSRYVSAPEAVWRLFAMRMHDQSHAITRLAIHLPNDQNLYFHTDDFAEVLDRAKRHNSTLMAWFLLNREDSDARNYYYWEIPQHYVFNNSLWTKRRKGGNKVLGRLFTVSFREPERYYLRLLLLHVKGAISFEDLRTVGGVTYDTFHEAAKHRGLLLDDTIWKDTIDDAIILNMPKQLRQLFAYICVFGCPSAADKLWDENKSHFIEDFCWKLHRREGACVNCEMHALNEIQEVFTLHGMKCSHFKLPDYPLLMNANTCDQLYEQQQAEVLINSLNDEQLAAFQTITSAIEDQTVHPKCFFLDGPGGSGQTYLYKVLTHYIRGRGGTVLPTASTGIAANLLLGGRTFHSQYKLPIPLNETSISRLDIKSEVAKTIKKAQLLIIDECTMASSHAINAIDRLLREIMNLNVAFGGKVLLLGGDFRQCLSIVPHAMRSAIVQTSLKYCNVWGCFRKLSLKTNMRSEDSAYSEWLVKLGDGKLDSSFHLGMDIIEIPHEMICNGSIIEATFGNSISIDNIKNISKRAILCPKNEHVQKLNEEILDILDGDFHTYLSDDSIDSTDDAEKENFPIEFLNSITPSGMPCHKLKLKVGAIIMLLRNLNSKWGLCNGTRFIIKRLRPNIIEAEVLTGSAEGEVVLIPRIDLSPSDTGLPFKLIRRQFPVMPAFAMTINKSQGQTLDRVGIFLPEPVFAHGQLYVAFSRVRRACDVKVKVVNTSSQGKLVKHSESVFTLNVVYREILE


Key:
Helraiser transposase = target: T1, Helraiser transposase; test: colorimetric ATPase assay (pyrophosphate release as printed); format: biochemical; conditions: Walker A mutant; ATP hydrolysis abolished
[1] = substrate: Nc1ncnc2c1ncn2[C@@H]1O[C@H](COP(=O)(O)OP(=O)(O)OP(=O)(O)O)[C@@H](O)[C@H]1O; test: as above; format: biochemical, Myotis lucifugus; conditions: DNA, metal, pH and temperature of the Km measurement not told in main text; helicase domain (Walker A) site

Molecule | colorimetric ATPase assay (pyrophosphate release as printed) (Helraiser transposase) | Km [1] | kcat [1]
Nc1ncnc2c1ncn2[C@@H]1O[C@H](COP(=O)(O)OP(=O)(O)OP(=O)(O)O)[C@@H](O)[C@H]1O [ATP] | Mutation of the Walker A motif K1068 abolished ATP hydrolysis | – | –
Helraiser transposase (Myotis lucifugus) (protein, full-length synthesized consensus transposase, 1,496 aa (N-terminal domain, Rep HUH nuclease, SF1 helicase); baculovirus expression, purified) MSKEQLLIQRSSAAERCRRYRQKMSAEQRASDLERRRRLQQNVSEEQLLEKRRSEAEKQRRHRQKMSKDQRAFEVERRRWRRQNMSREQSSTSTTNTGRNCLLSKNGVHEDAILEHSCGGMTVRCEFCLSLNFSDEKPSDGKFTRCCSKGKVCPNDIHFPDYPAYLKRLMTNEDSDSKNFMENIRSINSSFAFASMGANIASPSGYGPYCFRIHGQVYHRTGTLHPSDGVSRKFAQLYILDTAEATSKRLAMPENQGCSERLMININNLMHEINELTKSYKMLHEVEKEAQSEAAAKGIAPTEVTMAIKYDRNSDPGRYNSPRVTEVAVIFRNEDGEPPFERDLLIHCKPDPNNPNATKMKQISILFPTLDAMTYPILFPHGEKGWGTDIALRLRDNSVIDNNTRQNVRTRVTQMQYYGFHLSVRDTFNPILNAGKLTQQFIVDSYSKMEANRINFIKANQSKLRVEKYSGLMDYLKSRSENDNVPIGKMIILPSSFEGSPRNMQQRYQDAMAIVTKYGKPDLFITMTCNPKWADITNNLQRWQKVENRPDLVARVFNIKLNALLNDICKFHLFGKVIAKIHVIEFQKRGLPHAHILLILDSESKLRSEDDIDRIVKAEIPDEDQCPRLFQIVKSNMVHGPCGIQNPNSPCMENGKCSKGYPKEFQNATIGNIDGYPKYKRRSGSTMSIGNKVVDNTWIVPYNPYLCLKYNCHINVEVCASIKSVKYLFKYIYKGHDCANIQISEKNIINHDEVQDFIDSRYVSAPEAVWRLFAMRMHDQSHAITRLAIHLPNDQNLYFHTDDFAEVLDRAKRHNSTLMAWFLLNREDSDARNYYYWEIPQHYVFNNSLWTKRRKGGNKVLGRLFTVSFREPERYYLRLLLLHVKGAISFEDLRTVGGVTYDTFHEAAKHRGLLLDDTIWKDTIDDAIILNMPKQLRQLFAYICVFGCPSAADKLWDENKSHFIEDFCWKLHRREGACVNCEMHALNEIQEVFTLHGMKCSHFKLPDYPLLMNANTCDQLYEQQQAEVLINSLNDEQLAAFQTITSAIEDQTVHPKCFFLDGPGGSGKTYLYKVLTHYIRGRGGTVLPTASTGIAANLLLGGRTFHSQYKLPIPLNETSISRLDIKSEVAKTIKKAQLLIIDECTMASSHAINAIDRLLREIMNLNVAFGGKVLLLGGDFRQCLSIVPHAMRSAIVQTSLKYCNVWGCFRKLSLKTNMRSEDSAYSEWLVKLGDGKLDSSFHLGMDIIEIPHEMICNGSIIEATFGNSISIDNIKNISKRAILCPKNEHVQKLNEEILDILDGDFHTYLSDDSIDSTDDAEKENFPIEFLNSITPSGMPCHKLKLKVGAIIMLLRNLNSKWGLCNGTRFIIKRLRPNIIEAEVLTGSAEGEVVLIPRIDLSPSDTGLPFKLIRRQFPVMPAFAMTINKSQGQTLDRVGIFLPEPVFAHGQLYVAFSRVRRACDVKVKVVNTSSQGKLVKHSESVFTLNVVYREILE | – | 46 ± 3.3 µM | 6.8 ± 0.11 s⁻¹
